Test system: MS2 coat protein
Experiment: apparent KD of MS2 coat protein; designed switch direction (-1 OFF switch, 1 ON switch): -1; higher = weaker reporter binding
Method in brief: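 Designed RNA switches were transcribed on Illumina chips by stalled E. coli RNA polymerase and titrated with SNAP-549-labelled MS2 coat protein from 0.7 or 1.5 nM, doubling to 3 µM. Step length ran from 0.8–1.5 h at the lowest concentration to 10–20 min at the highest. The apparent KD is the median over clusters for each design, from curve-fitted normalised cluster fluorescence.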

[1] = Eterna round: R95, input ligand: microRNA oligo, concentration not stated
[2] = input ligand: microRNA oligo, concentration not stated
[3] = Eterna round: R95, input ligand: FMN 200 uM
[4] = Eterna round: R95, input ligand: none

| Sequence | apparent KD of MS2 coat protein [1] [nM] | apparent KD of MS2 coat protein (input ligand: FMN 200 uM) [nM] | apparent KD of MS2 coat protein [2] [nM] | apparent KD of MS2 coat protein (input ligand: none) [nM] | apparent KD of MS2 coat protein [3] [nM] | apparent KD of MS2 coat protein [4] [nM] |
| --- | --- | --- | --- | --- | --- | --- |
| UUAAAGGCAGGAUAUACAUUUUUUUUAUUAUCCUCAUUAUUACAUGAGGAUCACCCAUGUAGAAGGGCCAAAUU [Mat - Exclusion 2 - Mod of Hog - D85] (puzzle: Exclusion 2) | 57.6 | – | – | – | – | – |
| UUAAAUCAUGUAGGAUAUGCGUGGCGAAGCUAUGCAGAAGGACAUGAGGAUCACCCAUGUGCUUGCGUCUGCGUACAGAUGCUA [JL ENG1 1.12] (Eterna round: R96, puzzle: Exclusion NG 1) | – | 112 | 52.8 | 63.7 | – | – |
| UUAAAUCAUGUAGGAUAUGCGUGGCGAAGCUAUGCAGAAGGACAUGAGGAUCACCCAUGUUCUAGCGUCCGCGUACGGAUGCAA [JL Eng1 1.21 mod 10] (Eterna round: R96, puzzle: Exclusion NG 1) | – | 144 | 12 | 18.6 | – | – |
| UUAAUACAUGAGGAUCACCCAUGUCAGGAUAUUACGAUUACUCCGUGCCCAUUGAGAGUGAGAAGGGAUAUGGA [Eternabot (L2) Solution 58] (Eterna round: R97, puzzle: Exclusion 1) | – | 19.7 | – | 18.1 | – | – |
| UUAAUACAUGUAGGAUAUGCGUGGCGAAGCUAUGCAGAAGGACAUGAGGAUCACCCAUGUUCCAGCGUCCGCGUACGGAUGCAA [JL Eng1 1.21 mod 12] (Eterna round: R96, puzzle: Exclusion NG 1) | – | 14.2 | 12.4 | 14.2 | – | – |
| UUAAUUAAUGUCAGGAUAUCUAGAGCUUCGGCUCUAGAGAAGGGACAUGAGGAUCACCCAUGUCACUCUUAAUU [BmEx4/3-C1] (Eterna round: R97, puzzle: Brourd's mod of Exclusion 4) | – | 21.1 | – | 15.1 | – | – |
| UUAAUUAAUUAUAUAAGAUCACAUGAGGAUCACCCAUGUAUAUAGGAUAUCAGCUCGUUUAGAGCUGAGAAGGAUAUACAAUAU [ExNG3/3-B2] (Eterna round: R96, puzzle: Exclusion NG 3) | – | 41.8 | 497 | 209 | – | – |
| UUAAUUAAUUGACUGCAAGAUCAACAUGAGGAUCACCCAUGUGAGGAUAUCAGCUCGAUUAGAGCUGAGAAGGCACAAGCAGUC [ExNG3/16-A1] (Eterna round: R96, puzzle: Exclusion NG 3) | – | 80.4 | 15 | 17.5 | – | – |
| UUAAUUACGGUGCUUUAACCUCACAUGAGGAUCACCCAUGUGCAGGAUAUCAGCUCGUGUAGAGCUGAGAAGGGCACUGCACCG [ExNG3/11-A3] (Eterna round: R96, puzzle: Exclusion NG 3) | – | 14 | 8.05 | 12.1 | – | – |
| UUAAUUCUGAUUCUUGAAAUACAUGAGGAUCACCCAUGUUCACAGGAUAUUGAUUAUGUUAGUUACAAGAAGGGUGUAUCAUAU [JR_ExcNG3_Sub038] (Eterna round: R96, puzzle: Exclusion NG 3) | – | 38.9 | 26.8 | 30.6 | – | – |
| UUACAAUGUCACUUACAAGCUUUUUGCUCGUCUUAUAUUACAUGAGGAUCACCCAUGUAGAUCAUGUGGCGUGACCU [JL ViennaUCT Maridi mod 10] (puzzle: Sensor v3, turn-off variant 2) | 46.7 | – | – | – | 145 | 151 |
| UUAGCGUAAGUAAGGAUAUGCUGGUCUAAUGAUCAGCAGAAGGUACAUGAGGAUCACCCAUGUGGAUUCGUUAU [Mod of JL 10 - Jieux - Brourd's mod of Exclusion 4] (Eterna round: R97, puzzle: Brourd's mod of Exclusion 4) | – | 35.8 | – | 19.2 | – | – |
| UUAGGCGUCUUUGCUCGUCUUAUUUGGAGAUGACUGUUAACAUGAGGAUCACCCAUGUGUGUGGGAGCUUUGCAGUU [JR_SV3TOV2_Sub022] (puzzle: Sensor v3, turn-off variant 2) | 377 | – | – | – | 215 | 271 |
| UUAGGUAAAGGAUAUGUAUGGGCGACCCAUAUGACCGAGUGACAUGAGGAUCACCCAUGUAGAAGGUUGCUGAU [Eternabot (L1) Solution 60] (Eterna round: R97, puzzle: Exclusion 2) | – | 125 | – | 95.7 | – | – |
| UUAUAAAGUGUGAGGAUAUGCUGGUCCUUAGAUCAGCAGAAGGCACAUGAGGAUCACCCAUGUAAUAUAUUUUU [Mat - Exclusion 4 - JL Mod - D42] (puzzle: Brourd's mod of Exclusion 4) | 33.9 | – | – | – | – | – |
| UUAUAGAGAGGAUAUAUAAUGUGAAACAUGAGGAUCACCCAUGUAAUAUUAUGGAUGUAAAUAGAAGGCUCAAUUU [Mat - Exclusion 5 - JL mod - D14] (puzzle: Exclusion 5) | 30.6 | – | – | – | 29.3 | 32.4 |

| Sequence | apparent KD of MS2 coat protein [1] [nM] | apparent KD of MS2 coat protein (input ligand: FMN 200 uM) [nM] | apparent KD of MS2 coat protein [2] [nM] | apparent KD of MS2 coat protein (input ligand: none) [nM] | apparent KD of MS2 coat protein [3] [nM] | apparent KD of MS2 coat protein [4] [nM] |
| --- | --- | --- | --- | --- | --- | --- |
| UUAUAGGCAGGAUAUACAUGAGGAUCACCCAUGUAAAUUUUUCGUUUAACUUGAAUGUGUAGAAGGGCCAUAUU [Ex3 #57] (Eterna round: R97, puzzle: Exclusion 3) | – | 22.3 | – | 21.6 | – | – |
| UUAUGAGUAGGAUAUGAGCCAAAAUACAUGAGGAUCACCCAUGUCGGGUUCAUGGAGGGCUCAGAAGGAUUCAAUA [Exclusion 5 - Laarte Mod] (Eterna round: R97, puzzle: Exclusion 5) | – | 105 | – | 17 | – | – |
| UUAUUAAAUGUAGGAUAUGCAUAUUAUUAUUAUGCAGAAGGACAUGAGGAUCACCCAUGUAUAUUAUUAUUAUUUAUUAUAUAU [Title] (Eterna round: R96, puzzle: Exclusion NG 1) | – | – | 36.1 | – | – | – |
| UUAUUAUAUGUAGGAUAUGCAUAUUAUUAUUAUGCAGAAGGACAUGAGGAUCACCCAUGUAUGUUAUUAUUAUAUAUUAUAUAU [Title] (Eterna round: R96, puzzle: Exclusion NG 1) | – | – | 20.7 | – | – | – |
| UUAUUAUAUGUAGGAUAUGCGUAUUAUUGUUAUGCAGAAGGACAUGAGGAUCACCCAUGUAUAUUAUUGUUGUAUAUUAUAUAU [Title] (Eterna round: R96, puzzle: Exclusion NG 1) | – | – | 20.7 | – | – | – |
| UUCACAUGGACAUAAGAUCACAUGAGGAUCACCCAUGUGAAUAACAAGCUUUUUGUUCGUCUUAUGUCCAAUAAUAA [Stov1/14-B1] (Eterna round: R97, puzzle: Sensor, turn-off variant 1) | – | 12.3 | – | 12.6 | – | – |
| UUCAUGUGAGGAUAUUAGUAGUAAAUAAAUAAAAUUAUUACUGAGAAGGUACAUGAGGAUCACCCAUGUUCCUU [Salish 062 v22] (Eterna round: R97, puzzle: Exclusion 4) | – | 18.5 | – | 13.9 | – | – |
| UUCCUACAUGAGGAUCACCCAUGUCAGGAUAUCUCCUCACCGCGAAAAGGCGGUGAAAAGAGAAGGGACAGGAA [Usbian] (puzzle: Exclusion 1) | 10.7 | – | – | – | 16 | 13.8 |
| UUCCUCACUUCUUUGUCUCACAUGAGGAUCACCCAUGUAAUAUAGGAUAUGCUUAGUAUUUUUAUGCAGAAGGAUAUUAGUUUU [JR_ExcNG3_Sub085] (Eterna round: R96, puzzle: Exclusion NG 3) | – | 169 | 32.8 | 39.8 | – | – |
| UUCCUCAUAACAUGAGGAUCACCCAUGUAUUAUUUGGUAACUGAGGAUAUACUUUUAAUGUUUAUGUAGAAGGCAGAUACAGUU [JR_ExcNG3_Sub017] (Eterna round: R96, puzzle: Exclusion NG 3) | – | 165 | 80.4 | 109 | – | – |
| UUCGUGCAGCAAAGCUGUACGCGUACAUGAGGAUCACCCAUGUAGGAUAUGGUAGGCAAAGCUUACUAGAAGGAUAUGGUGAGC [Mat - Exclusion NG 3 - Mod of JL - D80] (Eterna round: R96, puzzle: Exclusion NG 3) | – | 51.9 | 36.8 | 35.2 | – | – |
| UUCUCGACAUGAGGAUCACCCAUGUAGUGGGAGAAAACUGGUUAGGAUAUAAAAUAGUACACCGUUUAGAAGGGACCUAUCCUC [Eternabot solution 4] (Eterna round: R96, puzzle: Exclusion NG 3) | – | 79.2 | 45.7 | 72.3 | – | – |
| UUGAUUCAUUCCUCUAUAAACAUGAGGAUCACCCAUGUAAGUGAGGAUAUAGUUGGAGUUGUAUACUAGAAGGCACUUAGUUUU [JR_ExcNG3_Sub048] (Eterna round: R96, puzzle: Exclusion NG 3) | – | 26 | 8.29 | 13 | – | – |
| UUGCAGUCGUCAGGAUAUAGUAUUACGGCCUUUUAUUUUUUCAUACAUGAGGAUCACCCAUGUCGCUAGAAGGGAUUAUCGAUU [salish99_ExNG2_r04_104] (Eterna round: R96, puzzle: Exclusion NG 2) | – | 39.6 | 31.6 | 41.4 | – | – |
| UUGCCACAUGAGGAUCACCCAUGUGAGGAUAUGGCCCGCCCGGCGUGUGCUGGUUCUGUCAGAAGGCGCGUGGG [salish99_ex1_r4_030] (Eterna round: R97, puzzle: Exclusion 1) | – | 73 | – | 33.1 | – | – |
| UUGCUUUCUUAGUACUCUAUAAGUUUUUUGUUCGUUUUAACAUGAGGAUCACCCAUGUCUAGUGGAUCUGAUCGGGU [JL ViennaUCT Isreen mod 7] (puzzle: Sensor v3, turn-off variant 2) | 303 | – | – | – | 150 | 163 |
